Assay [1] deals with T1, human CCR8 (human, UniProt P51685 1-355). As to the kind of experiment: cell-based or functional assay.
The target of assay [2] is T1, human CCR8. In words: cell-based or functional assay. The source holds these as a separate data set.
Another assay has as its target pm5 (human, sulfated tyrosines at Y15 and Y17). In words: ELISA on coated peptide [cont.]. How it is done:
(§1) The specific binding properties of antibodies were evaluated by ELISA with coated CCR8 related peptides (500 ng/mL) in carbonate/bicarbonate buffer. Different peptides were used as described in Table 1 (see Example 1). Each anti-CCR8 mAb was tested at 1 μg/mL then diluted at 1/10. After an incubation at room temperature during 90 min, unbound mAbs were removed by washings. […] After washings, 3,3′,5,5′-tetramethylbenzidine (TMB) (Interchim, Montlugon, France) was added for 15 min. Then the optical density (OD) was determined by using a multiplate reader (Tecan, Lyon, France) and correlated with mAb reactivity on the panel of coated peptides.
On the technique in general: An ELISA detects its analyte on a solid surface through an enzyme-linked reagent.

In another assay the target is pm6 (human, sulfated tyrosines at Y16 and Y17). As to the kind of experiment: ELISA on coated peptide [cont.]. The method, then:
as §1

A further assay deals with pm8 (human, sulfated tyrosines at Y15, Y16 and Y17). In words: ELISA on coated peptide [cont.]. The method, then: as §1
Another assay deals with pm3 (human, sulfated tyrosine at Y17). In words: ELISA on coated peptide [cont.]. How it is done: as §1
For assay [3], the target named is T1, human CCR8. As to the kind of experiment: flow cytometry, hCCR8 transfected CHOK1 cells. The method, then: Briefly, 1·10⁵ cells per well in a 96 well plate were incubated with a dilution of unconjugated anti-CCR8 mAb at 10 μg/mL then diluted at 1/3.33, 4 dilution points (during 30 min at 4° C.). […] To determine EC50 value, 8 concentrations of anti-CCR8 mAb were tested. Unbound antibodies were washed away with PBS (Invitrogen by Thermofisher Scientific, Illkirch-Graffenstaden, France) supplemented by 2% Fetal Bovine Serum (Invitrogen by Thermofisher Scientific, Illkirch-Graffenstaden, France) and 2 mM EDTA (Invitrogen by Thermofisher Scientific, Illkirch-Graffenstaden, France). Subsequently, cells are centrifuged (5 min at 400 g) and bound antibody is detected with F(ab′)₂-Goat anti-Mouse IgG (H+L) Cross-Adsorbed Secondary Antibody, Alexa Fluor 488 (dilution 1/500) (Invitrogen by Thermofisher Scientific, Illkirch-Graffenstaden, France) or with F(ab′)₂-Goat anti-Human IgG Fc Secondary Antibody, PE (Invitrogen by Thermofisher Scientific, Illkirch-Graffenstaden, France) (dilution 1/1000) at 4° C. for 30 min. Detection reagent is washed away and cells are centrifuged (5 min at 400 g) and resuspended in 30 μL PBS. Bound detection antibody is quantified on a MacsQuant16 (Miltenyi, Gladbach, Germany) (B1 or B2 channel, 5000 events per acquisition).
A general note: Flow cytometry measures light scatter and fluorescence of single cells or particles in a stream.

Values joined by “and” are separate entries in the source; they are usually repeats but may differ in a detail not shown here. Equal values may be shown once.

The results in this text go back to patent US20260234276A1 (DOMAIN THERAPEUTICS, published 2026).

Chain of pm6 (human, sulfated tyrosines at Y16 and Y17) (peptide, as listed by the source): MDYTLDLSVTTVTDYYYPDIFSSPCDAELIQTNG
Chain of pm3 (human, sulfated tyrosine at Y17) (peptide, as listed by the source): as above
Chain of pm5 (human, sulfated tyrosines at Y15 and Y17) (peptide, as listed by the source): as above
Chain of pm8 (human, sulfated tyrosines at Y15, Y16 and Y17) (peptide, as listed by the source): as above

B1: 3-49 (antibody, V domains shown)
VH: EVQLQQSGPELVKPGASVKISCKTSGYTFTEYTMHWVKQSHGKSLEWIGGINPNNGDTNYNQKFMGKATLTVDKSSSTAYMELRSLTSEDSAVYYCVRRLLRRGAMDYWGQGTSVTVSS
VL: DIVLTQSPASLAVSLGQRATISCRASENVEYYGTSLMQWFQQKPGQPPKLLIYAASNVDSGVPARFSGSGSGTDFSLNIHPVEEDDIAMYFCQQSRKVPWTFGGGTKLDIK
Take B1: in the assay with human CCR8 [1], the “IC50 (Gi2 BRET, pH 6.5)” value is 0.036 µg/ml and 0.237 nM; the “IC50 (Gi2 BRET, pH 7.4)” value was 0.006 µg/ml and 0.039 nM. In the assay with human CCR8 [2], the “hCCL1 (100 nM) residual response, Protocol #2, mAb 0.08 µg/mL” value turned out to be 99%; the “hCCL1 (100 nM) residual response, Protocol #2, mAb 0.4 µg/mL” value stood at 102%; the “hCCL1 (100 nM) residual response, Protocol #2, mAb 10 µg/mL” value was determined as 95%; the “hCCL1 (100 nM) residual response, Protocol #3, mAb 0.05 µg/mL” value came to 102%. In the assay with human CCR8 [2], the “hCCL1 (100 nM) residual response, Protocol #3, mAb 0.5 µg/mL” value was determined as 97% and the “hCCL1 (100 nM) residual response, Protocol #3, mAb 5 µg/mL” value came to 67%. Also, in the assay with pm5, the binding result is “binds”. The binding result with pm6 is “binds”. For the same molecule, the binding result with pm8 is given as “binds”. In the assay with pm3, the binding result is “binds”. Further, in the assay with human CCR8 [3], the “% positive cells” value came to 73.4% and the “MFI fold change to isotype ctrl” value came to 6.52 fold.

B2: 3-48 (antibody, V domains shown)
VH: QVQLVETGGGLVRPGNSLKLSCVTSGFTFSNYRMHWLRQPPGKRLEWIAVIKVKSDNYGANYAESVKGRFTISRDDSKSSVYLQVNRLREEDTATYYCSSPTYPGSSGFAYWGQGTLVTVSA
VL: DIQMTQTTSSLSASLGDRVTISCRASQDISNYLNWYQQKPDGTVKLLIYYTSRLHSGVPSRFSGSGSGTDYSLTISNLEQEDIATYFCQQGNKFPPTFGGGTKLEIN
Take B2: in the assay with human CCR8 [1], the “IC50 (Gi2 BRET, pH 6.5)” value is 0.014 µg/ml and 0.095 nM; the “IC50 (Gi2 BRET, pH 7.4)” value is 0.004 µg/ml and 0.026 nM. In the assay with human CCR8 [2], the “hCCL1 (100 nM) residual response, Protocol #2, mAb 0.08 µg/mL” value stood at 93%; the “hCCL1 (100 nM) residual response, Protocol #2, mAb 0.4 µg/mL” value came to 89%; the “hCCL1 (100 nM) residual response, Protocol #2, mAb 10 µg/mL” value came to 48%; the “hCCL1 (100 nM) residual response, Protocol #3, mAb 0.05 µg/mL” value turned out to be 92%. Also, in the assay with human CCR8 [2], the “hCCL1 (100 nM) residual response, Protocol #3, mAb 0.5 µg/mL” value worked out at 68% and the “hCCL1 (100 nM) residual response, Protocol #3, mAb 5 µg/mL” value came out at 50%. Also, the binding result with pm5 is “binds”. For the same molecule, the binding result with pm6 is “binds”. Also, the binding result in the assay with pm8 is recorded as “binds”. Further, the binding result in the assay with pm3 is “binds”. For the same molecule, in the assay with human CCR8 [3], the “% positive cells” value was 83% and the “MFI fold change to isotype ctrl” value turned out to be 17.6 fold.

B3: 3-45 (antibody, V domains shown)
VH: EVQLVETGGGLVQPKGSLKLSCAASGFTFNANAMNWVRQAPGKGLEWVARIRSKSNNYATYYADSVKDRFTISRDDSQSMLYLQMNNLKTEDTAMYYCVRGSDNYIFYAMDYWGQGTSVTVSS
VL: DIVMTQAAPSVPVTPGESVSISCRSSKSLLHSNGNTYLYWFLQRPGQSPQLLIYRMSNLASGVPDRFSGSGSGTAFTLRISRVEAEDVGVYYCMQHLEYPFTFGGGTKLEIK
Take B3: in the assay with human CCR8 [1], the “IC50 (Gi2 BRET, pH 6.5)” value was 0.031 µg/ml and 0.208 nM; the “IC50 (Gi2 BRET, pH 7.4)” value was 0.017 µg/ml and 0.115 nM. Moreover, in the assay with human CCR8 [2], the “hCCL1 (100 nM) residual response, Protocol #2, mAb 0.08 µg/mL” value worked out at 99%; the “hCCL1 (100 nM) residual response, Protocol #2, mAb 0.4 µg/mL” value stood at 85%; the “hCCL1 (100 nM) residual response, Protocol #2, mAb 10 µg/mL” value turned out to be 68%; the “hCCL1 (100 nM) residual response, Protocol #3, mAb 0.05 µg/mL” value was determined as 86%. In the assay with human CCR8 [2], the “hCCL1 (100 nM) residual response, Protocol #3, mAb 0.5 µg/mL” value worked out at 75% and the “hCCL1 (100 nM) residual response, Protocol #3, mAb 5 µg/mL” value turned out to be 48%. The binding result with pm5 is “binds”. Further, in the assay with pm6, the binding result was “binds”. Besides, the binding result in the assay with pm8 is recorded as “binds”. Moreover, the binding result in the assay with pm3 was “binds”. Besides, in the assay with human CCR8 [3], the “% positive cells” value stood at 67.8% and the “MFI fold change to isotype ctrl” value was 6.11 fold.
